From publication PMC11208146, “Molecular basis for transposase activation by a dedicated AAA+ ATPase” come the findings set out here.

In data set [1] the target is IstB (Geobacillus stearothermophilus (IS5376, …, UniProt Q45619 1-251)). The data set can be described thus: cryo-EM structure (3.2 A); size-exclusion co-elution; 1 mM ATP, 5 mM MgCl2; IstB-DNA: 20 mM HEPES pH 7.5, 150 mM NaCl, 5 mM MgCl2, 5% glycerol, 1 mM ATP, 1 mM DTT; dialysis at 4 C, SEC at room temperature; IstB:DNA 6.5:1. STC complex buffer not in the material. The settings on record: protein: recombinant; tags: His6-MBP, cleaved with PreScission protease; chain copies: 10; blunt.

Data set [2] concerns the target IstA;IstB (Geobacillus stearothermophilus (IS5376, …, UniProt Q45618;Q45619 1-400;1-251, |)). The data set can be described thus: negative-stain EM 2D averages; wild-type IstB; IstB-DNA: 20 mM HEPES pH 7.5, 150 mM NaCl, 5 mM MgCl2, 5% glycerol, 1 mM ATP, 1 mM DTT; dialysis at 4 C, SEC at room temperature; IstB:DNA 6.5:1. STC complex buffer not in the material. The settings on record: protein: recombinant;recombinant; tags: C-terminal MBP-His6, cleaved with TEV protease;His6-MBP, cleaved with PreScission protease; chain copies: 4;20; 5' overhang 5 nt on non-transferred strand; half-substrates of 3 strands, 2 copies pair via the insertion site (5 bp spacing).

Data set [3] deals with IstA;IstB E167Q (Walker B mutant) (Geobacillus stearothermophilus (IS5376, …, UniProt Q45618;Q45619 1-400;1-251, |E167Q)). As to the kind of experiment: cryo-EM structure (3.6 A; core 3.2 A); ATP, with ADP in IstA-bound IstB subunits; Mg2+; IstB-DNA: 20 mM HEPES pH 7.5, 150 mM NaCl, 5 mM MgCl2, 5% glycerol, 1 mM ATP, 1 mM DTT; dialysis at 4 C, SEC at room temperature; IstB:DNA 6.5:1. STC complex buffer not in the material. The settings on record: protein: recombinant;recombinant; tags: C-terminal MBP-His6, cleaved with TEV protease;His6-MBP, cleaved with PreScission protease; chain copies: 4;20; 5' overhang 5 nt on non-transferred strand; half-substrates of 3 strands, 2 copies pair via the insertion site (5 bp spacing).

B1: random 60-mer target duplex (dsDNA)
DNA 1: TGCTTGCGATGATCCGACGTGTTAGCCACGCTGACTAGTTATGCCATGCCTCCCTTCAGG
DNA 2: CCTGAAGGGAGGCATGGCATAACTAGTCAGCGTGGCTAACACGTCGGATCATCGCAAGCA
B1: the binding result in data set [1] is reported as “binds”.

B2: IS21 strand-transfer complex (STC) DNA (dsDNA)
DNA 1: CCTTCTGGGGAATTTTAAACCGGCGATTTTGGGGAAAAAATAATCGGCCTTGACAGCTGCACAGTAAGAGAATTATGCAGTGCTGCCATAACCATGAGTGATAACACTGCGGCCAACTTACTTCTGACAA
DNA 2: ATTCATGTCAAGGCCGATTATTTTTTCCCCAAAATCGCCGGTTTAAAATTCCCCAGAAGG
DNA 3: TTGTCAGAAGTAAGTTGGCCGCAGTGTTATCACTCATGGTTATGGCAGCACTGCATAATTCTCTTACTGT
Regarding B2, the binding result in data set [2] and in data set [3] was “binds” throughout.
